We go through 1 substance from patent US20150273048A1.

This test has as its target M2e4x-PR8HA fusion protein (four tandem repeats of M2e fused to A/PR8 HA) on recombinant M2e4x-PR8HA influenza virus (influenza A/PR/8/34 (H1N1)) (UniProt P03452). The test is described as follows: ELISA on serially coated inactivated virus. On the technique in general: An ELISA detects its analyte on a solid surface through an enzyme-linked reagent.

As to “Influenza A virus M2 monoclonal antibody 14C2 (Abcam Inc., Cambridge, Mass.)”, the coating concentration at which reactivity was detected (ng/100 µl/well) was 20 and the fold M2e reactivity relative to parental wild type A/PR8 virus was 250 fold.
